The supplement of paper PMC10724198

How the values were obtained:
Saccharomyces cerevisiae [1] = test: protein stability index of tFT-peptide fusion in wild type (PSI (0-1 scale)); higher = more stable (slower turnover); conditions: genetic background: wild type
Protocol: (§1)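 MPS profiling in S. cerevisiae of two library types built from selected 12-aa C-degron peptides (IN1, IN2, LN1, LN3, VN2, R1-R5, W1-W3, Atg1 and Rpa12 C-termini): saturation mutagenesis libraries and C-terminal +1 capping libraries (13 aa). Each peptide is fused to the C-terminus of a sfGFP-mCherry timer, after a GGGS linker. Cells are FACS-sorted into 8 mCherry/sfGFP bins and sequenced. PSI runs from 0 (unstable) to 1 (stable), measured once in wild type and in the das1Δ or doa10Δ background.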

Saccharomyces cerevisiae [2] = test: protein stability index of tFT-peptide fusion in deletion strain of DAS1 (PSI (0-1 scale)); higher = more stable (slower turnover)
Protocol: as §1
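Throughout, for protein stability index of tFT-peptide fusion in deletion strain of DAS1: PSI is a weighted mean of each variant's read distribution over the sorted stability bins, computed only for variants having over 10 reads in total.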
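Throughout, for protein stability index of tFT-peptide fusion in wild type: PSI derived as read-weighted mean over the 8 sorting bins, only variants exceeding 10 total reads kept, mCherry placed adjacent to the peptide and sfGFP distal.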

| Sequence | protein stability index (Saccharomyces cerevisiae [1]) | protein stability index (Saccharomyces cerevisiae [2]) |
| --- | --- | --- |
| FSMRNTFRYWVN | 0.0817 | 0.578 |
| CTSCGYKLRTNN | 0.471 | 0.678 |
| VRGAVGGWRLYG | 0.239 | 0.686 |
| ARWRVGLWRGASR | 0.663 | 0.676 |
| LKILRMKMNHQN | 0.243 | 0.71 |
| ARWRVGLGRGAS | 0.456 | 0.679 |
| KKHPKGQKQKIN | 0.14 | 0.684 |
| PDKKNHLIKLLN | 0.09 | 0.768 |
| LVVKLSCVACIN | 0.0127 | 0.0586 |
| FMMRWTFRYWVN | 0.0399 | 0.359 |
| KKHKKGQKQSIN | 0.673 | 0.577 |
| RLIQQLPVQFLN | 0.0315 | 0.602 |
| VRGAVGGWRLHG | 0.226 | 0.662 |
| KKSKKGQKQKIN | 0.0679 | 0.576 |
| FSMRWTFREWVN | 0.0594 | 0.57 |
| VRGAVNGWRLVG | 0.157 | 0.694 |
| PSLAASFWRVCG | 0.163 | 0.659 |
| KKHKKGQKQKDN | 0.607 | 0.638 |
| LVVYLSCVFCIN | 0.0477 | 0.167 |
| CTSCGYKFFTNN | 0.347 | 0.727 |
| PTLAASFWRVVG | 0.162 | 0.703 |
| ARWRVGLWRFAS | 0.101 | 0.675 |
| PSLAASFWRAVG | 0.158 | 0.699 |
| VRGAVGWWRLVG | 0.163 | 0.665 |

| Sequence | protein stability index (Saccharomyces cerevisiae [1]) | protein stability index (Saccharomyces cerevisiae [2]) |
| --- | --- | --- |
| PSLAASFWGVVG | 0.697 | 0.715 |
| RLIQPFPVQFLN | 0.09 | 0.778 |
| RLQQPLPVQFLN | 0.0653 | 0.574 |
| CTSCGYKFRTNA | 0.266 | 0.697 |
| KKHKKTQKQKIN | 0.0737 | 0.677 |
| LKILRQKMNHMN | 0.191 | 0.605 |
| LVVYLSCVACNN | 0.127 | 0.16 |
| FSMRWTNRYWVN | 0.0731 | 0.592 |
| RLIQPLPVQYLN | 0.0462 | 0.661 |
| CTSCGYKFRTNNG | 0.683 | 0.69 |
| CSLAASFWRVVG | 0.125 | 0.69 |
| KKHKKGDKQKIN | 0.137 | 0.599 |
| PSRAASFWRVVG | 0.149 | 0.691 |
| FSMRWTFRRWVN | 0.11 | 0.623 |
| LVVYRSCVACIN | 0.133 | 0.333 |
| ALWRVGLWRGAS | 0.464 | 0.707 |
| LFVYLSCVACIN | 0.0334 | 0.0251 |
| VRGAVFGWRLVG | 0.149 | 0.678 |
| PSLAASFWRVLG | 0.164 | 0.68 |
| PDKRNHKIKLLN | 0.086 | 0.599 |
| RLICPLPVQFLN | 0.0408 | 0.562 |
| PSLAASFIRVVG | 0.46 | 0.435 |
| LKILRQKFNHQN | 0.202 | 0.668 |
| CTDCGYKFRTNN | 0.254 | 0.662 |

| Sequence | protein stability index (Saccharomyces cerevisiae [1]) | protein stability index (Saccharomyces cerevisiae [2]) |
| --- | --- | --- |
| RLIQPLPVQFLD | 0.633 | 0.573 |
| RLYQPLPVQFLN | 0.068 | 0.586 |
| FSMRWTFWYWVN | 0.0405 | 0.416 |
| VRGAVYGWRLVG | 0.141 | 0.666 |
| ARWRVGLWTGAS | 0.664 | 0.677 |
| CTSCGYKFRTNS | 0.465 | 0.697 |
| FSMRWTRRYWVN | 0.101 | 0.585 |
| PSLAASFERVVG | 0.655 | 0.675 |
| ARWYVGLWRGAS | 0.469 | 0.696 |
| ARWRVGLERGAS | 0.661 | 0.7 |
| PSLAASFWRVVGT | 0.674 | 0.698 |
| PSLAASFWRVVP | 0.539 | 0.688 |
| CTSCGGKFRTNN | 0.61 | 0.675 |
| LKILRQKMFHQN | 0.206 | 0.654 |
| ARWRVGLWSGAS | 0.67 | 0.693 |
| PDKRAHLIKLLN | 0.112 | 0.617 |
| KKHKKGQKQKINL | 0.652 | 0.663 |
| VRGAVEGWRLVG | 0.19 | 0.692 |
| RLIQPLPCQFLN | 0.0496 | 0.587 |
| PSLAYSFWRVVG | 0.134 | 0.693 |
| PDKRNHLITLLN | 0.315 | 0.622 |
| ARWRVGLWRGASM | 0.651 | 0.639 |
| CTSCGYKFRTYN | 0.31 | 0.696 |
| LKILVQKMNHQN | 0.218 | 0.662 |

| Sequence | protein stability index (Saccharomyces cerevisiae [1]) | protein stability index (Saccharomyces cerevisiae [2]) |
| --- | --- | --- |
| RLIQPLPVSFLN | 0.262 | 0.593 |
| LVVYLSCVECIN | 0.125 | 0.262 |
| KTHKKGQKQKIN | 0.0924 | 0.684 |
| LKILRQKMNHTN | 0.197 | 0.672 |
| PSLPASFWRVVG | 0.197 | 0.685 |
| RLIQPSPVQFLN | 0.0855 | 0.683 |
| ARWMVGLWRGAS | 0.449 | 0.709 |
| PDKRNHLIMLLN | 0.193 | 0.624 |
| VRGAVGGWRLAG | 0.233 | 0.695 |
| KKHKKGCKQKIN | 0.0767 | 0.598 |
| CCSCGYKFRTNN | 0.226 | 0.681 |
| LVVYLSCVICIN | 0.0482 | 0.112 |
| LVAYLSCVACIN | 0.0244 | 0.156 |
| KKHKVGQKQKIN | 0.0595 | 0.567 |
| RLIQPLPVEFLN | 0.0996 | 0.586 |
| KPHKKGQKQKIN | 0.0908 | 0.625 |
| VRGAVGGHRLVG | 0.675 | 0.703 |
| VRGAVGGWLLVG | 0.156 | 0.668 |
| PDKRNHLIQLLN | 0.102 | 0.616 |
| LDILRQKMNHQN | 0.121 | 0.707 |
| ACWRVGLWRGAS | 0.445 | 0.694 |
| RLIQNLPVQFLN | 0.029 | 0.57 |
| PDKRNHLIKELN | 0.355 | 0.597 |
| KKILRQKMNHQN | 0.159 | 0.688 |

| Sequence | protein stability index (Saccharomyces cerevisiae [1]) | protein stability index (Saccharomyces cerevisiae [2]) |
| --- | --- | --- |
| LVVYLSCVACINH | 0.0236 | 0.0365 |
| VRWRVGLWRGAS | 0.209 | 0.648 |
| FSMRWTFRWWVN | 0.0591 | 0.462 |
| LWVYLSCVACIN | 0.0149 | 0.0209 |
| ARWRVGLWRGAI | 0.529 | 0.685 |
| KKPKKGQKQKIN | 0.174 | 0.591 |
| PDLRNHLIKLLN | 0.13 | 0.614 |
| ARWRVGLWRGASH | 0.66 | 0.685 |
| LEILRQKMNHQN | 0.161 | 0.672 |
| LKVYLSCVACIN | 0.0444 | 0.14 |
| PSLAASFVRVVG | 0.528 | 0.514 |
| PSLRASFWRVVG | 0.141 | 0.688 |
| ARWRVCLWRGAS | 0.397 | 0.705 |
| PDKRNHLIKLLI | 0.206 | 0.594 |
| GTSCGYKFRTNN | 0.261 | 0.659 |
| PSLDASFWRVVG | 0.128 | 0.677 |
| VRGAGGGWRLVG | 0.209 | 0.663 |
| KKTKKGQKQKIN | 0.113 | 0.583 |
| PSLFASFWRVVG | 0.109 | 0.694 |
| CTSCGYKFRTNN | 0.247 | 0.691 |
| RLIQPLPVQFLNR | 0.659 | 0.669 |
